From patent US5622930A, “C1 inhibitor muteins and uses thereof” (CLB, priority 1991, dated 1997)
Positions count from the first letter of the chain named.

Test system: HNE
Experiment: inactivation of C1 inhibitor muteins by elastase (protease sensitivity)
Type: biochemical
Conditions: neutrophil elastase as the source of protease; compared to wild type C1 inhibitor
Source text: FIG. 2 presents a generalized assay screening format for determining both the inhibitory (complex formation) or protease sensitivity (inactivation) of the C1 muteins. The latter measures inactivation of the C1 inhibitor muteins by non-target proteases. This procedure is also described by Eldering et al., 1988, in J. of Biological Chem., 263: 11776. Modifications of these methods are also known in the art.
Using similar approaches, the non-target protease sensitivity of the C1 inhibitor muteins may be determined. Numerous assays may be employed that measure the amount of intact C1 inhibitor mutein, or fragments that are derived from the muteins, remaining after exposure to protease. […] A solid phase assay is preferred whereby C1 inhibitor muteins are reacted with non-target protease bound to a solid matrix and the amount of proteolysis of the muteins measured by determining the amount of intact mutein remaining, or preferably by detecting fragments of the mutein.
An exemplary non-target protease that cleaves C1 is neutrophil elastase. Thus, this enzyme may be coupled to CNBr treated Sepharose 4B, and incubated with a C1 inhibitor mutein, and the presence of proteolytically cleaved C1 mutein monitored using a number of techniques. […] Subsequently, the amount of bound cleaved C1 inhibitor can be determined using a second radiolabelled antibody that recognizes the cleaved molecule. […]

B1: P5 -leu:P3 -ala: C1 inhibitor mutein with Leu at position 440 (P5) and Ala at position 442 (P3) (protein, UniProt P05155 23-500, looked up, variant I440L V442A)
Plasma protease C1 inhibitor: NPNATSSSSQDPESLQDRGEGKVATTVISKMLFVEPILEVSSLPTTNSTTNSATKITANTTDEPTTQPTTEPTTQPTIQPTQPTTQLPTDSPTQPTTGSFCPGPVTLCSDLESHSTEAVLGDALVDFSLKLYHAFSAMKKVETNMAFSPFSIASLLTQVLLGAGENTKTNLESILSYPKDFTCVHQALKGFTTKGVTSVSQIFHSPDLAIRDTFVNASRTLYSSSPRVLSNNSDANLELINTWVAKNTNNKISRLLDSLPSDTRLVLLNAIYLSAKWKTTFDPKKTRMEPFHFKNSVIKVPMMNSKKYPVAHFIDQTLKAKVGQLQLSHNLSLVILVPQNLKHRLEDMEQALSPSVFKAIMEKLEMSKFQPTLLTLPRIKVTTSQDMLSIMEKLEFFDFSYDLNLCGLTEDPDLQVSAMQHQTVLELTETGVEAAAASALSAARTLLVFEVQQPFLFVLWDQQHKFPVFMGRVYDPRA
In the case of B1, the susceptibility to inactivation is reported as “significantly reduced susceptibility to inactivation”.

B2: P5 -leu:P3 -leu: C1 inhibitor mutein with Leu at position 440 (P5) and Leu at position 442 (P3) (protein, UniProt P05155 23-500, looked up, variant I440L V442L)
Plasma protease C1 inhibitor: B1 Plasma protease C1 inhibitor with A442L
B2 was tested, and the susceptibility to inactivation was “significantly reduced susceptibility to inactivation”.
